Columns and labels:
[1] = target: T1, t-PA-mediated plasminogen activation (Homo sapiens, UniProt P00750); assay: t-PA-dependent conversion of plasminogen to plasmin, effect of S100A4 (Example 11); type: biochemical
T1 construct: purchased Calbiochem
Procedure: Non-active plasminogen can be converted to active protease plasmin by tissue type (t-PA) or urokinase type (u-PA) plasminogen activators. Except for its well-known fibrinolytic activity, plasmin also directly and indirectly, by activation of matrix metalloproteinases (MMPs), participates in the degradation of extracellular matrix that is important for the angiogenesis and tumor invasion. The kinetics of t-PA-mediated plasminogen activation was determined by measuring amidolytic activity of the plasmin generated during plasminogen activation. The reaction was performed with the plasmin substrate Chromozyme PL, tosyl-glycyl-prolyl-lysin-4-nitranilide-acetate (Roche) in the final concentration of 125 μM in a buffer consisting of 50 mM Tris-HCl, pH 7.4, 100 mM NaCl, 5 mM of CaCl2 or 5 mM of EGTA, and 150 nM of [Glu] plasminogen (Calbiochem). The reaction was preincubated with or without 2.5 μM S100A4 at 24 C° for 1 h in 96-well plates. The reaction was initiated by addition of t-PA (Calbiochem) up to 5 nM concentration, final volume 100 μl. Kinetic of substrate hydrolysis was measured at 2 min intervals at 405 nm in Spectramax Plus 384 spectrophotometer (Molecular Devices). Analysis of kinetics curves (Vmax, time to Vmax, and initial slope of kinetic data converted to A405 versus time^2) was performed with the help of Softmax PRO program (Molecular Devices).
Kinetics of plasminogen to plasmin conversion consists of three parts. As shown in FIG. #3 curves 1 and 2 for t-PA, during first 1500 s the reaction is second order that corresponds to conversion of plasminogen to plasmin and consequent cleavage of chromogenic substrate by plasmin. The second part of reaction is linear, for which Vmax can be calculated. It starts after total conversion of plasminogen to plasmin and corresponds to cleavage of chromogenic substrate by plasmin with constant rate. In the third part of reaction, after 2700 s, the reaction is slowing down that corresponds to depletion of chromogenic substrate and finally the reaction reaches a plateau when all substrate is cleaved. As follows from the comparison of curves 1 and 2, t-PA along converted plasminogen to plasmin equally efficiently in the presence or absence of calcium. Neither conversion of plasminogen to plasmin took place in the absence of t-PA no S110A4 induced such conversion by itself, curves 5 and 6. In the presence of S100A4 linear part of reaction starts substantially earlier, which means that total conversion of plasminogen to plasmin was accelerated. Kinetic parameters for t-PA along and for combination of t-PA with S100A4 are represented in Table 4. […] S100A4 accelerated conversion of plasminogen to plasmin in calcium independent manner, curves 3 and 4.

annexin II = target: T2, annexin II (Homo sapiens, UniProt P07355); assay: Immunoprecipitation analysis of S100A4-annexin II complex formation; type: binding; details: monomer and aggregated forms, in Ca2+ or EGTA
T2 construct: GST (N); made in house; host or cells: E. coli ER2507
T2 sequence (P07355 2-339 V98L): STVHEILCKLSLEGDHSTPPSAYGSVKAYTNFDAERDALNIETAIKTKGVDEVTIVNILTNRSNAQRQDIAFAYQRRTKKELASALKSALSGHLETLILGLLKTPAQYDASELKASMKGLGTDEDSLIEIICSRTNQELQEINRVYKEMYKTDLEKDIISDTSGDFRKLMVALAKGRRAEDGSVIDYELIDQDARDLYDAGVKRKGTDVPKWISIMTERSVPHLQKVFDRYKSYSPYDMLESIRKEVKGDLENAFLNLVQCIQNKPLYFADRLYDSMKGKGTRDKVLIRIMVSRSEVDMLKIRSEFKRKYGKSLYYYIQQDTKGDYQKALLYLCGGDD
T2 sequence (P26447 whole entry partner): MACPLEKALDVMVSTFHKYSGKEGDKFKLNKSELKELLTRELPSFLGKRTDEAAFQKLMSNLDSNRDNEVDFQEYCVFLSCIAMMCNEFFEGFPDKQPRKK
Procedure: S100A4 and annexin II proteins, both at the concentrations of 1.5 mg/ml, were pre-incubated overnight at 37° C. in TBS containing either 5 mM CaCl2, or 5 mM EGTA.
The formation of the S100A4-annexin II complex was analyzed by immunoprecipitation with an anti-S100A4 rabbit polyclonal antibody. To this end, the reaction mixture was incubated with the antibody (10 μg/ml) for 1 h at 37° C. and then precipitated by adding protein G-sepharose beads (Affi-Gel; Bio-Rad Laboratories, Hercules, Calif.) and incubating the resulted mixture for 1 h at room temperature. After that the beads were washed 3 times by 500 ul of TBS, boiled in Laemmli sample buffer for 5 min, and then loaded on SDS-PAAG. The proteins were then electro-transferred to a nitrocellulose membrane. The Western blot analysis was performed using anti-Annexin II antibody (BD Pharmingen) used at 1:5000 dilution and sheep anti-mouse antibody conjugated to horseradish peroxidase (Amersham Pharmacia Biotech, Piscataway, N.J.) used at 1:10000 dilution, followed visualization of the Annexin II bands by chemiluminescence.
However, the complex formation is more efficient in the case when the aggregated S100A4 are used. Additionally, the interaction between S100A4 (both monomer and oligomer) and annexin II is more efficient in the absence of Ca2+ (EGTA conditions) compared to that observed in the presence of Ca2+.

[2] = target: T1, t-PA-mediated plasminogen activation; assay: t-PA-mediated plasminogen conversion kinetics with and without S100A4 (Example 12); type: biochemical; details: for acceleration of plasmin formation (K units): 1 μM S100A4, 100 nM plasminogen
Procedure: The effects of peptide SEQ ID 6, peptide SEQ ID 38 and chimera SEQ ID 39 on acceleration oft-PA-mediated conversion of plasminogen to plasmin induced by S100A4 were measured. The kinetics of t-PA-mediated plasminogen activation were determined by measuring the amidolytic activity of plasmin formed during activation of plasminogen. All the experiments were done in 100 μl volume in 96-well plates in triplicates. Glu-plasminogen (Calbiochem) at the concentration of 100 nM was preincubated at 25° C. for 1 h in the presence or absence of 1 μM recombinant S100A4 in a buffer consisting of 50 mM Tris-HCl, pH 7.4, 100 mM NaCl and 5 mM CaCl2 or 5 mM EGTA. In some experiments, different concentrations of peptides or chimera were preincubated together with proteins. The reaction was initiated by addition of 5 nM t-PA (Calbiochem) and 125 μM chromogenic plasmin substrate, Chromozym PL (Roche). The reactions were monitored at 405 nm for 1.5 h in a SPECTRAmax PLUS^384 microplate spectrophotometer (Molecular Devices) under control of the SOFTmax PRO kinetic program (Molecular Devices). The initial rates of plasmin generation, during the first 10-15 min, were calculated using linear regression analysis of plots of A405 nm versus time 2. The initial rates of plasmin generation were reported in units (K) of A405 nm/min^2×10^3. […] The titration data were analyzed with the four-parameter logistic equation K=(A−D)/(1+(x/C)^B)D. If A, asymptotic minimum, =0, this equation is converted to the Michaelis-Menten equation K=D/(1+(C/[S])^B), where [S] is substrate concentration, D=Vmax, C=Km, and B is the Hill coefficient.
The addition of S100A4 to basal reaction (t-PA plus plasminogen) produced a significant increase in the plasminogen conversion rate. […] The stimulation of the plasminogen conversion by S100A4 was concentration-dependent with the half-maximal effect at 2.4 μM.
The kinetic parameters of t-PA-mediated plasminogen conversion were evaluated in the presence and absence of S100A4 as a function of plasminogen concentrations ranging from 3 nM to 3 μM.

[3] = Ca (5 mM CaCl2), with or without 2.5 μM S100A4

T1 sequence (P00750 36-562): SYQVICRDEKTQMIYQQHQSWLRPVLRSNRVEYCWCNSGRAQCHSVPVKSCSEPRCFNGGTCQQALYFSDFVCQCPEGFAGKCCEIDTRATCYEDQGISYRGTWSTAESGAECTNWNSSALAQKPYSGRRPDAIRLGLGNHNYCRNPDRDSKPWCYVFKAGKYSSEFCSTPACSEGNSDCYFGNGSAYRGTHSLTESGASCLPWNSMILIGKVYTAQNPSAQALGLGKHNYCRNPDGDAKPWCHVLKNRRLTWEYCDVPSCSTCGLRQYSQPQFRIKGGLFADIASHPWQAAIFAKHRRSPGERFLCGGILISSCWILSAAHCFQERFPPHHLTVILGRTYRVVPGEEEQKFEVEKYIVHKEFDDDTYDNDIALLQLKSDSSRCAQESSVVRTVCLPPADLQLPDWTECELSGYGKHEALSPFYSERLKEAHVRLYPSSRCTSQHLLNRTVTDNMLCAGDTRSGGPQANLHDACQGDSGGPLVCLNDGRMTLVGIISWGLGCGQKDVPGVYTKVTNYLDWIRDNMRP

Substance: S100A4: recombinant human S100A4 protein cloned from human placenta total RNA, Ca-binding protein of S100 family
- increase of initial rate of plasmin generation ([1]; 2.5 μM S100A4 versus t-PA alone): more than 3 fold
- Slope (initial rate of plasmin generation) [1, 3]: 0.250 ΔA405/t^2(min^2) * 1000
- Time to Vmax [1, 3]: 1440 s
- complex formation with annexin II (annexin II): capable of complex formation with annexin II
- EC50 ([2]; concentration-dependent stimulation, read-out: half-maximal effect of stimulation of plasminogen conversion): 2400 nM
- plasmin generation in the absence of t-PA ([2]; no t-PA): plasmin generation did not take place
- Km ([2]; plasminogen 3 nM to 3 μM, read-out: Km of the t-PA-mediated plasminogen conversion): 59 nM
- acceleration of plasmin formation (K units) ([2]; presence of Ca2+): 15 fold
- increase in the catalytic efficiency (Vmax/Km) of t-PA ([2]; presence of EGTA): 7.6 fold
- acceleration of plasmin formation (K units) ([2]; presence of EGTA): 11 fold
- increase in the catalytic efficiency (Vmax/Km) of t-PA ([2]; presence of calcium): 10 fold

Source: US20050277575A1, “Therapeutic compositions and methods for treating diseases that involve angiogenesis” (priority 2004, published 2005)
